Assay [1] addresses extradomain-B fibronectin (EDB-FN), human, as secreted or deposited by human cancer cells and in human tumour tissue (human) (UniProt P02751). Kind of assay: histogram of Cy5 pixel intensities of ZD2-Cy5 staining (5 µM) of a human prostate tumor section, GS=9.
Assay [2] shares this target. In words: histogram of Cy5 pixel intensities of ZD2-Cy5 staining (5 µM) of a human prostate tumor section, GS=7.
The target is the same in assay [3]. Kind of assay: histogram of Cy5 pixel intensities of ZD2-Cy5 staining (5 µM) of a human prostate BPH section, tissue with low EDB-FN.
For assay [4], the target named is T1, EDB fragment (extradomain B of fibronectin), expressed in E. coli with an N-terminal 10xHis tag (UniProt P02751 1266-1356).
T1 construct: domain: EDB; also called EDB protein; purified EDB; not shown: N-terminal 10xHis tag from the pQE-T7-1 vector
In words: ELISA, HRP-conjugated peptide on EDB protein.

For assay [5], the target named is T1, EDB fragment (extradomain B of …). In words: phage display, four rounds of panning on immobilised purified EDB fragment. Here is the method: The Ph.D C7C library (New England Biolabs, Beverly, Mass., USA) was used for screen EDB specific nonapeptides. Candidate peptides were selected by carrying out panning procedures for 4 rounds. In each round, purified EDB fragment (100 μg/ml) was immobilized on non-treated 96-well plates (Corning Costar, Tewksbury, Mass., USA) with overnight coating at 4° C. 0.5% BSA was used to block non-specific binding (1 hr, room temperature) followed by incubating with phages for 1 hr at room temperature. Extensive washing with PBST (0.1%, 0.3%, 0.5% […], respectively, for round 1-3) was used to remove non-binding phages before eluting bound phages by 0.1M Glycine-HC (pH 2.2) and neutralizing with Tris-HCl (pH 9.1). Eluted phages are tittered and amplified with E. coli (ER2758) according to the user's manual. Amplified phages in medium were purified by ultrafiltration and PEG/NaCl precipitation. At the end of round 4, properly diluted phages were cultured on LB/IPTG/Xgal plates and DNA from 29 randomly picked blue plaques were used for sequencing with supplied primers (New England Biolabs). Peptide sequences were resulted from translating of corresponding DNA sequences.
The Ph.D C7C library (New England Biolabs, Beverly, Mass.) was used to screen for EDB-specific cyclic nonapeptides. Candidate peptides were selected by panning for four rounds. […]

Assay [6] concerns the target T2, EDA (extradomain A of fibronectin) (UniProt P02751 1722-1811, limits assumed).
T2 construct: domain: EDA
Kind of assay: ELISA, HRP-conjugated peptide. (In an ELISA, binding on a coated surface is turned into a signal by an enzyme label.)

Assay [7] addresses T1, EDB fragment (extradomain B of …). In words: SPR (Biacore T100), EDB protein immobilised on a CM5 chip, Scatchard plot. How it is done:
The ZD2 peptide sequence, TVRTSAD (SEQ ID NO: 1), was synthesized in solid phase using Fmoc chemistry. A short spacer, Fmoc-9-amino-4,7-dioxanonanoic acid (Fmoc-NH-PEG₂-CH₂CH₂COOH), and 5-hexynoic acid, were also sequentially conjugated in solid phase followed by trifluoroacetic acid (TFA) treatment, which yielded ZD2-PEG-propargyl. Azido-Gd(HP-DO3A) was synthesized as reported previously. Click chemistry reaction between ZD2-PEG-propargyl (1 Eq) and azido-Gd(HP-DO3A) (1.1 Eq) was performed in a 2:1 mixture of t-butanol and water under nitrogen following addition of [Cu(MeCN)₄]PF₆ (0.02 Eq) and TBTA (Tris[(1-benzyl-1H-1,2,3-triazol-4-yl)methyl]amine, 0.02 Eq). The final product, named ZD2-Gd(HP-DO3A), was purified by high performance liquid chromatography (HPLC) on an Agilent 1100 HPLC system equipped with a semi-preparative C18 column. […] The Gd(III) content was measured by inductively coupled plasma optical emission spectroscopy (ICP-OES Optima 3100XL, Perkin-Elmer, Norwalk, Conn.). […] Sensorgrams generated from the binding between contrast agents and EDB were recorded with Biacore T100 (GE healthcare, Waukesha, Wis.), and analyzed using Scatchard plot. Affinity was calculated by fitting data into a linear line, with the slope of the line representing −1/Kd.
A general note: In SPR one partner is held on a chip, and binding of the other changes the refractive index at the surface.

This is an account of results in patent US20210275695A1 (CASE WESTERN RESERVE UNIVERSITY, published 2021).

Bridges are numbered along the chain shown (N, C = ends). Where no end group is shown, it is not given here. Side-chain parts run from the residue outwards. maleimide = maleimide group that reacts with the cysteine thiol to conjugate the peptide to the carrier (horseradish peroxidase); Gd(HP-DO3A) (azide, via triazole) = azido-Gd(HP-DO3A) gadolinium chelate, click-linked through a triazole; sulfo‑Cy5 = sulfo-cyanine 5 fluorescent label; HRP = horseradish peroxidase; PEG3 = NCCOCCOCCOCCC(=O)O

T1 sequence (P02751 1266-1356): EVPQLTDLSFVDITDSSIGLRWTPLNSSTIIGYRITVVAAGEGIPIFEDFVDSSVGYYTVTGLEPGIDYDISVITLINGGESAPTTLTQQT
extradomain-B fibronectin (EDB-FN), human, as secreted or deposited by human cancer cells and in human tumour tissue (human), sequence (P02751 32-2477): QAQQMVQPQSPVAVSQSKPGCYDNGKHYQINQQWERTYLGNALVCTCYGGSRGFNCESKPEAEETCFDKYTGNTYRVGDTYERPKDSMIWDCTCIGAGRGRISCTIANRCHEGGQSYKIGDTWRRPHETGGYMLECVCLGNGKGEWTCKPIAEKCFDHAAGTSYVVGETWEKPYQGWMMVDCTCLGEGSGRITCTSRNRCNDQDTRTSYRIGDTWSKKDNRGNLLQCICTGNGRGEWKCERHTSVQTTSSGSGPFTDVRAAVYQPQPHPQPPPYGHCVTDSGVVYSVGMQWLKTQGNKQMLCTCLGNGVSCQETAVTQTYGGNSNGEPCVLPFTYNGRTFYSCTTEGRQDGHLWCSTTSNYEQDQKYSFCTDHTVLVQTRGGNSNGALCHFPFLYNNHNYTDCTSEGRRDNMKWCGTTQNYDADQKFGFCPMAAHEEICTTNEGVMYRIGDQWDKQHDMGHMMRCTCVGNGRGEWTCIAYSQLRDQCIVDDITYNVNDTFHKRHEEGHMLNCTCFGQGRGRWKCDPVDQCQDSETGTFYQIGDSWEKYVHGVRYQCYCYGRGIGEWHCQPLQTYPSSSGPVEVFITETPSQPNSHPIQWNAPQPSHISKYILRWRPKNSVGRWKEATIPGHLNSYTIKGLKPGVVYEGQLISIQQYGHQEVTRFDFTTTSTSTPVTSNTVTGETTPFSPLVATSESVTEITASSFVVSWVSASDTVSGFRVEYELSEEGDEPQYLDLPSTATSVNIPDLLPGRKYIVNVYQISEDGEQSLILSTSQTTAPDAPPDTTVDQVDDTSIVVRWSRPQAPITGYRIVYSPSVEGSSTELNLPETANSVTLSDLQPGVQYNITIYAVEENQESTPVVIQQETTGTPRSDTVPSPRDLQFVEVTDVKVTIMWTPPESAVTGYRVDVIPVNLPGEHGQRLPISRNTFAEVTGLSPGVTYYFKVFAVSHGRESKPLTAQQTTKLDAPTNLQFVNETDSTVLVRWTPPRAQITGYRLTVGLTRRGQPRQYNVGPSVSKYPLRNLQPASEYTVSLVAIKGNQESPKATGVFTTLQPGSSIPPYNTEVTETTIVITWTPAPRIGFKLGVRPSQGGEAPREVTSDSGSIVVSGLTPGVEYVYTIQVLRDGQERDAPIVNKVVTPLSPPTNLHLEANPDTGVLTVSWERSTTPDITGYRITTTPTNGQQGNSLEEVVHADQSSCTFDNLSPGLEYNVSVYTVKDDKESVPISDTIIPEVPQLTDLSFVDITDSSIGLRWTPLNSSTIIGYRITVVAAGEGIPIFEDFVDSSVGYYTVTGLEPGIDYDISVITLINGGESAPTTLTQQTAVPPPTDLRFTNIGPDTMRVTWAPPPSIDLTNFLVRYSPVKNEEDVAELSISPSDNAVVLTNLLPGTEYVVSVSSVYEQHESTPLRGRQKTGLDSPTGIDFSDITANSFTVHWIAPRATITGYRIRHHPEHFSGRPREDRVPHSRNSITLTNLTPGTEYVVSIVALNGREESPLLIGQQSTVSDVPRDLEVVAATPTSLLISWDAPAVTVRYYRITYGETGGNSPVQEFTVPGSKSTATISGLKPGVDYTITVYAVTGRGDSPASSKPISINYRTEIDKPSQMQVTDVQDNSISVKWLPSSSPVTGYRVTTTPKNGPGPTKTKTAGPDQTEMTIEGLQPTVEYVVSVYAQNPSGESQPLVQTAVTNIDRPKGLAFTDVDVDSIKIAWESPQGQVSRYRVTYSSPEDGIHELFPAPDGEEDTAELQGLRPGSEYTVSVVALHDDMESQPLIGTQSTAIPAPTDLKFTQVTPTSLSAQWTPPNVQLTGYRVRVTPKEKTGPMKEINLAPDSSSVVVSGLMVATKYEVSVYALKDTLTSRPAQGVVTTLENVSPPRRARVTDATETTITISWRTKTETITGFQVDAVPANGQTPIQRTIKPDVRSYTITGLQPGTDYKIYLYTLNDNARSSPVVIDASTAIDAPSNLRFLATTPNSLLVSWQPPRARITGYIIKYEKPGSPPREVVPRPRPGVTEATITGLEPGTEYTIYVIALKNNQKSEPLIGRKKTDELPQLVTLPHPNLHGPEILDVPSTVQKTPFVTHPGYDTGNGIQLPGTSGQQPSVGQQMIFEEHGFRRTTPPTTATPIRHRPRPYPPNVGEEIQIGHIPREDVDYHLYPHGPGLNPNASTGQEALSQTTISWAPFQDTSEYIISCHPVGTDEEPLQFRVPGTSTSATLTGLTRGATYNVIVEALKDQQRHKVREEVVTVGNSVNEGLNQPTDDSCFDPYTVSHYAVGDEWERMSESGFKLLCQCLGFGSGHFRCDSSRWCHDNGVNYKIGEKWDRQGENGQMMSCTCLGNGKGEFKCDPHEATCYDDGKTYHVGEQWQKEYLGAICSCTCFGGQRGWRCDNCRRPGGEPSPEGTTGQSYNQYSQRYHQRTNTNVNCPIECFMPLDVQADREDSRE
T2 sequence (P02751 1722-1811 limits assumed): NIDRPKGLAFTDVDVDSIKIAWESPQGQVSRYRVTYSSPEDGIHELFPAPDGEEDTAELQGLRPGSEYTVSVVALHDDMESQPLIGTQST

Turning to {sulfo‑Cy5-PEG3}-CTVRTSADC-OH (disulfide 1-9) [ZD2-Cy5 (cyclic ZD2 peptide … labelled with Cy5 through a short PEG linker)], the percent pixel counts of Cy5 pixel value 50 to 255 in assay [1] worked out at 72.2%; in assay [2], 40%; in assay [3] it was 2.1%. On to CERAK (also: conjugated to HRP, 'similarly' to l-ZD2-HRP, Control peptide) [CERAK-HRP], for which the binding result in assay [4] is “no binding”. For CTVRTSADC (disulfide 1-9 (inferred); not fully specified, also called cyclic nonapeptide ZD2) [cyclic ZD2 peptide (CTVRTSADC) as selected by phage display], the binding result in assay [5] is given as “binds”.

Consider H-TVRTSADC([maleimide-HRP])-OH, for which the binding result in assay [6] is listed as “no binding”.

As a reminder, the Kd is the free concentration of one partner at which half of the binding sites on the other are occupied at equilibrium, for simple one-to-one binding. The low end stands for tighter binding, the high end for weaker binding. The molecule {Gd(HP-DO3A) (azide, via triazole)-5‑hexynoic acid-9‑amino‑4,7‑dioxanonanoic acid}-TVRTSAD (also: Gd complex, also called ZD2-Gd(DO3A)) [ZD2-Gd(HP-DO3A) (linear ZD2 peptide TVRTSAD joined through PEG and a triazole to Gd(HP-DO3A))] yielded a dissociation constant Kd in assay [7] of 1700 nM.
